We go through five molecules from US10183062B2, “Treatment for cancer” (The University of Nottingham, priority 2013, dated 2019).

Entries after “also recorded” stand apart in the source; their conditions may differ.

Series [1] has as its system NC(=O)C1=CN([C@@H]2O[C@H](COP(=O)(O)OP(=O)(O)OC[C@H]3O[C@@H](n4cnc5c(N)ncnc54)[C@H](O)[C@@H]3O)[C@@H](O)[C@H]2O)C=CC1. Nature of the series: CB1954 nitroreductase activity, HPLC, purified His-tagged NmeNTR. Type of series: biochemical, Neisseria meningitidis MC58. Conditions: other: 37° C., pH 7.0. The text has this:
(§1) Genes encoding homologs of E. coli NfnB and Bacillus amyloliquefaciens YwrO from several bacteria were cloned into an E. coli expression vector for screening (see Methods below). These were the NfnB homolog from Neisseria meningitidis MC58 (‘NmeNTR’, accession number Q9K022), the NfnB homolog from Haemophilus somnus 129PT (‘HsoNTR’, accession number ZP_00122352.1), the NfnB homolog from Burkholderia fungorum LB400 (‘BfuNTR’, accession number ZP_00029570.1), the YwrO homolog from Vibrio cholerae (‘VchYwrO’, accession number Q9KNX3), the YwrO homolog from Rhodobacter sphaeroides (‘RspYwrO’, accession number ZP_00007082.1), and two YwrO homologs from Pseudomonas aeruginosa (‘PaeYwrO1’, accession number Q9HUJ0; and ‘PaeYwrO2’, accession number Q9I4B3).
(§2) For determination of CB1954 nitroreductase kinetic parameters, six-histidine affinity-tagged enzymes were purified from cell lysates purified using a Novagen His-Bind kit in accordance with the manufacturer's instructions.
(§3) CB1954 nitroreductase activity was determined essentially as described by Anlezark (6). Reaction mixtures containing 500 μM NADH or NADPH and a small quantity of enzyme (either crude lysate or purified enzyme) were assembled in pre-warmed (to 37° C.) 100 mM sodium phosphate buffer (pH 7.0), and started with the addition of 100 μM CB1954 and prompt mixing.
(§4) To determine initial reaction rates during preliminary screening of CB1954 nitroreductase candidates, aliquots of the reaction mixtures taken at various times were injected into a Partisphere SCX (100×4.7 mm) HPLC column and eluted isocratically at 2 ml/min with 130 mM NaH2PO4 (pH 5.0). Eluates were continuously monitored at 260 nm and 325 nm, and the absorbance spectra of eluting components recorded using a photodiode array detector. Peaks were identified with reference to standards and/or by their known absorbance spectra (7) and anticipated column retention times as appropriate. Rates were determined based on the decrease in the area under the CB1954 peak over time, normalised to the known starting concentration of 100 μM using the peak from the zero timepoint sample.
(§5) To determine initial reaction rates and CB1954 nitroreduction products in later experiments with purified proteins, peaks were identified as before, and rates were determined based on the increase in the area under the 4-hydroxylamine derivative peak over time, normalised using enzymatically-synthesised 4-hydroxylamine standards.
(§6) NmeNTR and HsoNTR were each affinity-tagged, over-expressed, purified, and the CB1954 nitroreductase activities of the purified proteins characterized using the HPLC assay. The reaction products and kinetic parameters of these enzymes with respect to CB1954 and NADH were determined (Table 1). […] Moreover, the kinetic parameters of HsoNTR and NmeNTR differ dramatically from those of E. coli NfnB and other published enzymes (Table 1). […] NmeNTR would therefore approach saturation with CB1954 in a therapeutic regime using the maximum clinically-recommended dose, so the prodrug would be efficiently activated and high levels of tumour-specific cytotoxicity achieved.

The test system of series [2] is NC(=O)c1cc(N2CC2)c([N+](=O)[O-])cc1[N+](=O)[O-]. Described as above. In kind it is biochemical, Neisseria meningitidis MC58. The following applies: pH 7.0.
Excerpt: as §1, §2, §3, §4, §5, §6

Series [3] concerns E. coli NfnB nitroreductase, wild type. Conditions: Knox et al., 1992; read-out: Km^NADH; cited from earlier work.
Series [4] concerns BliNTR, NTR from Bacillus licheniformis. The following applies: Emptage et al., 2009; read-out: Km^NADH; cited from earlier work.
For series [5], the system named is E. coli NfnB variant N71S/F124K. The following applies: Searle et al., 2004 and Race et al., 2007; read-out: Km^NADH; cited from earlier work.
Series [6] has as its system NC(=O)C1=CN([C@@H]2O[C@H](COP(=O)(O)OP(=O)(O)OC[C@H]3O[C@@H](n4cnc5c(N)ncnc54)[C@H](O)[C@@H]3O)[C@@H](O)[C@H]2O)C=CC1. Nature of the series: CB1954 nitroreductase activity, HPLC, purified His-tagged HsoNTR. Type of series: biochemical, Haemophilus somnus 129PT. Conditions: other: 37° C., pH 7.0.
Excerpt: as §1, §2, §3, §4, §5
(§7) NmeNTR and HsoNTR were each affinity-tagged, over-expressed, purified, and the CB1954 nitroreductase activities of the purified proteins characterized using the HPLC assay. The reaction products and kinetic parameters of these enzymes with respect to CB1954 and NADH were determined (Table 1). […]

Series [7] concerns NC(=O)c1cc(N2CC2)c([N+](=O)[O-])cc1[N+](=O)[O-]. The description is as above. Type of series: biochemical, Haemophilus somnus 129PT. The following applies: pH 7.0; for kcat: 37° C.
Excerpt: as §1, §2, §3, §4, §5, §7

Series [8] is described as follows: Specific menadione reductase activity in lysates of E. coli cells (screen for functional expression). Type of series: biochemical. Conditions: E. coli lysates containing expression plasmid. As for the experimental part:
In an initial screen for functional expression of each of the cloned genes, specific menadione reductase activity was determined in lysates of E. coli cells containing the NfnB or YwrO homolog expression plasmid. Enzymes from these families are expected to be NAD(P)H-dependent quinone reductases regardless of their nitroreductase activity against CB1954, and a photospectrometric menadione reductase assay is available (see Methods below), so this approach provides a convenient means to assess functional expression.
(§8) Lysates of E. coli clones containing pMTL1015-based enzyme expression plasmids were prepared for preliminary characterisation of enzyme activities. […]
Menadione reductase activity was determined by the method of Knox (5). […] Reduction of cytochrome C was recorded by measuring increase in absorbance at 550 nm. Specific activities were calculated using the total protein concentrations of cell lysates, which were determined using the Bradford reagent (Sigma-Aldrich). Aliquots of cell lysates were mixed with 250 μl of Bradford reagent and incubated in the dark at room temperature for 5 min before absorbance was measured at 595 nm. Absorbance values were compared to those obtained using known concentrations of bovine serum albumin.

Series [9] in a line: CB1954 nitroreductase activity of purified His-tagged proteins (HPLC assay). In kind it is biochemical. On the procedure:
as §2, §3, §5, §6

A short description of series [10]: Screen for CB1954 nitroreductase activity in E. coli lysates (HPLC). In kind it is biochemical. Conditions: 100 μM CB1954. As for the experimental part: To screen for CB1954 nitroreductase activity of each of the functionally expressed genes, lysates of E. coli cells containing the NfnB or YwrO homolog expression plasmid were added to reaction mixtures containing CB1954 and the concentration of CB1954 was monitored by HPLC (see Methods below). […] Such activity was not observed in the lysates containing VchYwrO, PaeYwrO1 or PaeYwrO2.
as §8, §3
To determine initial reaction rates during preliminary screening of CB1954 nitroreductase candidates, aliquots of the reaction mixtures taken at various times were injected into a Partisphere SCX (100×4.7 mm) HPLC column and eluted isocratically at 2 ml/min with 130 mM NaH2PO4 (pH 5.0). Eluates were continuously monitored at 260 nm and 325 nm, and the absorbance spectra of eluting components recorded using a photodiode array detector. […]

Where [11] appears, read: other: CB1954, cofactor NADPH, 37° C.

In general, Km refers to the substrate concentration at which the rate is half of its maximum.

Turning to “NmeNTR, Neisseria meningitidis MC58 nitroreductase (NfnB homolog, Q9K022), wild type, SEQ ID NO: 1 (Neisseria meningitidis MC58)”, the Km in [1] worked out at 188 µM. In [2] (other: 37° C.), the Km is 2.47 µM, the kcat is recorded as 4.04 (NADH) and the kcat/Km is 1.636 (NADH). Further, in [2] (setting [11]), the kcat is 15.23 (NADPH) and the kcat/Km was 6.166 (NADPH).

Consider `NC(=O)C1=CN([C@@H]2O[C@H](COP(=O)(O)OP(=O)(O)OC[C@H]3O[C@@H](n4cnc5c(N)ncnc54)[C@H](O)[C@@H]3O)[C@@H](O)[C@H]2O)C=CC1` [NADH], for which the Km was 6 µM in series [3], 820 µM in series [4] and 5 µM in series [5].

“HsoNTR, Haemophilus somnus 129PT nitroreductase (NfnB homolog, ZP_00122352.1), wild type, SEQ ID NO: 2 (Histophilus somni)”: the Km stood at 644 µM in series [6] and 22.03 µM in series [7] (other: 37° C.). Also, the kcat is on record as 3.5 (NADH) S^−1 in series [7] (other: CB1954, cofactor NADH) and 13.13 (NADPH) S^−1 in [7] (other: CB1954, cofactor NADPH).

B1: HsoNTR: NfnB homolog nitroreductase from Haemophilus somnus 129PT, accession ZP_00122352.1, SEQ ID NO: 2 (protein, listed as Haemophilus somnus)
chain: MTTISKEHVLDSFNRRASTRYYDPNKKISNEDFSYVLEFARLSPSSVGSEPWHFLVIQNPELRAKLKPVSWGMATQIDDASHLVVILAKKNARYDSEFLVQSMKRRGLSGEQIQATKEKYHLFQAEHMKTLENDRTLFDWASKQTYIALANMLTGAALIGIDSCPIEGFNYEKVNQILTDAGVLDSDEWGVSVMATFGYRAKEIKPKSRKSLDEIVTWVK
Turning to B1, in series [8], the “specific menadione reductase activity of lysates versus control” value is reported as “significantly elevated above the control”. The “Kcat/K^CB1954” value was 0.159 (NADH) s^−1μM^−1 in series [9] (NADH) and 0.596 (NADPH) s^−1μM^−1 in series [9] (NADPH). In addition, the “CB1954 nitroreductase activity (decrease in CB1954 concentration)” value in series [10] is given as “caused a decrease in CB1954 concentration; also recorded: rapidly consumed”.

B2: NmeNTR: NfnB homolog nitroreductase from Neisseria meningitidis MC58, accession Q9K022, SEQ ID NO: 1 (protein, listed as Neisseria meningitidis)
chain: MTVLSKEQVLSAFKNRKSCRHYDAARKISAEDFQFILELGRLSPSSVGSEPWQFIVVQNPEIRQAIKPFSWGMADALDTASHLVVFLAKKNARSDSPFMLESLKRRGVTEPDAVAKSLARYQAFQADDIKILDDSRALFDWCCRQTYIALANMMTGAAMAGIDSCPVEGFNYAEMERILSGQFGLFDAAEWGVSVAATFGYRVQEIATKARRPLEETVIWA
Turning to B2, the “specific menadione reductase activity of lysates versus control” value in series [8] is “significantly elevated above the control”. In addition, the Km in [9] was less than 6.3 µM. Also, the “Km^CB1954 relative to the lowest previously reported (NfsA)” value in [9] is “seven-fold lower”. The “Kcat/K^CB1954” value in [9] (NADH) was 1.636 (NADH) s^−1μM^−1; in [9] (NADPH) it was 6.166 (NADPH) s^−1μM^−1. In series [10], the “CB1954 nitroreductase activity (decrease in CB1954 concentration)” value was “caused a decrease in CB1954 concentration; also recorded: rapidly consumed”.
